Source: IntAct's records for PubMed 25126958

B1: Cell division control protein 45 (Saccharomyces cerevisiae), Q08032 (parent)
chain: MYYGISQFSEAYNKILRNSSSHSSCQLVIFVSCLNIDALCATKMLSLLFKKQLVQSQIVPIFGYSELRRHYSQLDDNINSLLLVGFGGVIDLEAFLEIDPQEYVIDTDEKSGEQSFRRDIYVLDAHRPWNLDNIFGSQIIQCFDDGTVDDTLGEQKEAYYKLLELDEESGDDELSGDENDNNGGDDEATDADEVTDEDEEDEDETISNKRGNSSIGPNDLSKRKQRKKQIHEYEGVLEEYYSQGTTVVNSISAQIYSLLSAIGETNLSNLWLNILGTTSLDIAYAQVYNRLYPLLQDEVKRLTPSSRNSVKTPDTLTLNIQPDYYLFLLRHSSLYDSFYYSNYVNAKLSLWNENGKKRLHKMFARMGIPLSTAQETWLYMDHSIKRELGIIFDKNLDRYGLQDIIRDGFVRTLGYRGSISASEFVEALTALLEVGNSTDKDSVKINNDNNDDTDGEEEEDNSAQKLTNLRKRWVSNFWLSWDALDDRKVELLNRGIQLAQDLQRAIFNTGVAILEKKLIKHLRIYRLCVLQDGPDLDLYRNPLTLLRLGNWLIECCAESEDKQLLPMVLASIDENTDTYLVAGLTPRYPRGLDTIHTKKPILNNFSMAFQQITAETDAKVRIDNFESSIIEIRREDLSPFLEKLTLSGLL
partner: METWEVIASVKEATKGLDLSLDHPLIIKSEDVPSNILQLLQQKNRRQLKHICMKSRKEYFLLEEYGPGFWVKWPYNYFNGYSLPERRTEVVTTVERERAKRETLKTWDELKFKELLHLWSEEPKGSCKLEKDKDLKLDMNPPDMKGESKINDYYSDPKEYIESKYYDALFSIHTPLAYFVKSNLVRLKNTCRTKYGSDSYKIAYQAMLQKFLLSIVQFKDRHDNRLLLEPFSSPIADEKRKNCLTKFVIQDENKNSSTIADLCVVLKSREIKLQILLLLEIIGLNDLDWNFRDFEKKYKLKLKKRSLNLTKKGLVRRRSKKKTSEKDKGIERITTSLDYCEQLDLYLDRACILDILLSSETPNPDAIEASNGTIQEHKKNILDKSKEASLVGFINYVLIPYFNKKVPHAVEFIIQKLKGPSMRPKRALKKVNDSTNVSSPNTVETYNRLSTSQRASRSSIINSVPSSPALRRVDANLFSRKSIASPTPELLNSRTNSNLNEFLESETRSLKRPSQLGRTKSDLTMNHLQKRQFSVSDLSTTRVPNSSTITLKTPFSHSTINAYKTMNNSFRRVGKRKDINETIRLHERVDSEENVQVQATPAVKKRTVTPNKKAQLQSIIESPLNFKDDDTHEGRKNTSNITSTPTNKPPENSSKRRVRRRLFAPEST

Variants of: B1
Details: with sld3_yeast SLD3, P53135

Variant	effect of a mutation on the interaction
D91N;D124N;D149N;D150N	disrupting interaction strength
